# How the values were obtained:
# [1] = system: primary human cell cultures (11 cell types); test: Custom gene array, 11 human cell types in normoxia or hypoxia for 6 hr and 18 hr; format: cell-based; conditions: for mRNA expression level, #1 HY 6 hr: cell type #1, hypoxia 6 hr; for mRNA expression level, #1 HY 18 hr: cell type #1, hypoxia 18 hr; for mRNA expression level, #1 NO: cell type #1, normoxia; for mRNA expression level, #2 HY 6 hr: cell type #2, hypoxia 6 hr; for mRNA expression level, #2 HY 18 hr: cell type #2, hypoxia 18 hr; for mRNA expression level, #2 NO: cell type #2, normoxia; for mRNA expression level, #3 HY 6 hr: cell type #3, hypoxia 6 hr; for mRNA expression level, #3 HY 18 hr: cell type #3, hypoxia 18 hr; for mRNA expression level, #3 NO: cell type #3, normoxia; for mRNA expression level, #4 HY 6 hr: cell type #4, hypoxia 6 hr; for mRNA expression level, #4 HY 18 hr: cell type #4, hypoxia 18 hr; for mRNA expression level, #4 NO: cell type #4, normoxia; for mRNA expression level, #5 HY 6 hr: cell type #5, hypoxia 6 hr; for mRNA expression level, #5 NO: cell type #5, normoxia; for mRNA expression level, #6 HY 6 hr: cell type #6, hypoxia 6 hr; for #6 HY 18 hr (mRNA expression level): cell type #6, hypoxia 18 hr; for mRNA expression level, #6 NO: cell type #6, normoxia; for #7 HY 6 hr (mRNA expression level): cell type #7, hypoxia 6 hr; for #7 HY 18 hr (mRNA expression level): cell type #7, hypoxia 18 hr; for #7 NO (mRNA expression level): cell type #7, normoxia; for #8 HY 6 hr (mRNA expression level): cell type #8, hypoxia 6 hr; for #8 HY 18 hr (mRNA expression level): cell type #8, hypoxia 18 hr; for #8 NO (mRNA expression level): cell type #8, normoxia; for #9 HY 6 hr (mRNA expression level): cell type #9, hypoxia 6 hr; for #9 HY 18 hr (mRNA expression level): cell type #9, hypoxia 18 hr; for #9 NO (mRNA expression level): cell type #9, normoxia; for #10 HY 6 hr (mRNA expression level): cell type #10, hypoxia 6 hr; for #10 HY 18 hr (mRNA expression level): cell type #10, hypoxia 18 hr; for #10 NO (mRNA expression level): cell type #10, normoxia; for #11 HY 6 hr (mRNA expression level): cell type #11, hypoxia 6 hr; for #11 HY 18 hr (mRNA expression level): cell type #11, hypoxia 18 hr; for #11 NO (mRNA expression level): cell type #11, normoxia;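 as to mRNA expression level, #1 HY 18 hr: cell type #1 is adipocyte from subcutaneous adult adipose tissue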;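 as to mRNA expression level, #1 HY 6 hr: cell type #1 is adipocyte from subcutaneous adult adipose tissue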;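 as to mRNA expression level, #1 NO: cell type #1 is adipocyte from subcutaneous adult adipose tissue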;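 as to mRNA expression level, #2 HY 18 hr: cell type #2 is fetal cardiomyocyte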;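 as to mRNA expression level, #2 HY 6 hr: cell type #2 is fetal cardiomyocyte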;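 as to mRNA expression level, #2 NO: cell type #2 is fetal cardiomyocyte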;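 as to mRNA expression level, #3 HY 6 hr: cell type #3 is human umbilical vein endothelial cells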;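 as to mRNA expression level, #3 NO: cell type #3 is human umbilical vein endothelial cells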;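 as to mRNA expression level, #4 HY 18 hr: cell type #4 is adult dermal fibroblast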;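 as to mRNA expression level, #4 HY 6 hr: cell type #4 is adult dermal fibroblast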;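 as to mRNA expression level, #4 NO: cell type #4 is adult dermal fibroblast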;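 as to mRNA expression level, #5 HY 6 hr: cell type #5 is adult hepatocyte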;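 as to mRNA expression level, #5 NO: cell type #5 is adult hepatocyte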;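 as to mRNA expression level, #6 HY 6 hr: cell type #6 is blood-derived macrophage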;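 as to mRNA expression level, #6 NO: cell type #6 is blood-derived macrophage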
# In short: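 Values are each gene's expression relative to its median over all cell types and conditions, after per-array normalisation to control genes and merging of replicate arrays. Cells were 11 human types, mostly unmodified primary cultures, kept in normoxia or exposed to hypoxia for 6 hr or 18 hr.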
# human macrophages = test: Custom gene array, macrophages with no cytokines, IL-10 or LPS + IFN, in normoxia and hypoxia; format: cell-based; conditions: for mRNA EXPRESSION (experimental condition) #1: #1 no cytokines/normoxia; for mRNA EXPRESSION (experimental condition) #2: #2 no cytokines/hypoxia; for mRNA EXPRESSION (experimental condition) #3: #3 IL-10/normoxia; for mRNA EXPRESSION (experimental condition) #4: #4 IL-10/hypoxia; for mRNA EXPRESSION (experimental condition) #5: #5 LPS/IFN/normoxia; for mRNA EXPRESSION (experimental condition) #6: #6 LPS/IFN/hypoxia
# Description: Macrophages were derived and cultured as described elsewhere in the specification. A total of 6 experimental conditions were analysed, as shown below. Where cells were treated with cytokines or hypoxia (0.1% oxygen), this was for 6 hr. Lipopolysaccharide (LPS) (from E.coli 026:B6; Sigma), gamma Interferon (IFN) and Interleukin-10 (IL-10) were all used at a final concentration of 100 ng/ml. The effect of gamma Interferon and Lipopolysaccharide is to activate macrophages, with a Th1 biased phenotype, as found in many inflammatory conditions. Interleukin-10 is a Th2 cytokine and de-activates macrophages, and suppresses their effector functions.
# [2] = Table 15, referenced to the median value of that gene throughout all 6 conditions
# [3] = Table 16, referenced to median of the gene over 6 conditions
molecule,measurement,setting,value
"p1D24 (nucleic acid, listed as Homo Sapiens, EST array clone; misc_feature 112, 125, 156, 208, 224, 232, 239, 258, 270, 297, 316, 350,359: n = A,T,C or G) DNA: TTCTATCAGAAATTGTATTTATTTACCAGCATTTATGGCAAATGGCCAGACCTGGGCAGGGTGGTAGCAATGATAGATTTTACAAATTAAGGCATTGTTCTTTATTTCAAANTTTTCATTTACCNATATTTTCCTTGGTCTTAGAAATATGAATANTTTAGAGCTGGCAATACTCACCATCAGGATATAATAAACGGAGGTTTCTTTNTCCGAAATCCATAAANTGTAGTANTACTCTNTTGTACTTTTAAAATTCCNATTTTTGCAGTNGGCTTCCTCTCAGTGATTTAGTTAGGNAGTTTTGGTACATTTTGGNGGGGTCATAAACATGTTCATAGGATAGGAGTACNGGGCATTTNTGGAAAAACCCG","mRNA expression level, #1 HY 6 hr",[1],0.71
same,"mRNA expression level, #1 HY 18 hr",[1],1.39
same,"mRNA expression level, #1 NO",[1],0.98
same,"mRNA expression level, #2 HY 6 hr",[1],1.98
same,"mRNA expression level, #2 HY 18 hr",[1],2.16
same,"mRNA expression level, #2 NO",[1],1.55
same,"mRNA expression level, #3 HY 6 hr",[1],1.47
same,"mRNA expression level, #3 HY 18 hr",[1],1.01
same,"mRNA expression level, #3 NO",[1],1.18
same,"mRNA expression level, #4 HY 6 hr",[1],0.49
same,"mRNA expression level, #4 HY 18 hr",[1],0.67
same,"mRNA expression level, #4 NO",[1],0.74
same,"mRNA expression level, #5 HY 6 hr",[1],1.94
same,"mRNA expression level, #5 NO",[1],1.53
same,"mRNA expression level, #6 HY 6 hr",[1],0.98
same,#6 HY 18 hr (mRNA expression level),[1],0.96
same,"mRNA expression level, #6 NO",[1],0.90
same,#7 HY 6 hr (mRNA expression level),[1],0.79
same,#7 HY 18 hr (mRNA expression level),[1],0.49
same,#7 NO (mRNA expression level),[1],0.71
same,#8 HY 6 hr (mRNA expression level),[1],0.90
same,#8 HY 18 hr (mRNA expression level),[1],0.93
same,#8 NO (mRNA expression level),[1],0.53
same,#9 HY 6 hr (mRNA expression level),[1],0.51
same,#9 HY 18 hr (mRNA expression level),[1],0.43
same,#9 NO (mRNA expression level),[1],0.81
same,#10 HY 6 hr (mRNA expression level),[1],10.9
same,#10 HY 18 hr (mRNA expression level),[1],11.79
same,#10 NO (mRNA expression level),[1],4.63
same,#11 HY 6 hr (mRNA expression level),[1],2.23
same,#11 HY 18 hr (mRNA expression level),[1],1.65
same,#11 NO (mRNA expression level),[1],1.85
same,HIGHEST FOLD CHANGE IN HYPOXIA (hr hypoxia + cell type),"[1]; hypoxia/normoxia induction ratio, 18 hr renal epithelial",2.55 (18 hr renal epithelial) fold
same,mRNA EXPRESSION (experimental condition) #1,human macrophages; [2],0.58
same,mRNA EXPRESSION (experimental condition) #2,human macrophages; [2],0.71
same,mRNA EXPRESSION (experimental condition) #3,human macrophages; [2],1.00
same,mRNA EXPRESSION (experimental condition) #4,human macrophages; [2],1.32
same,mRNA EXPRESSION (experimental condition) #5,human macrophages; [2],1.56
same,mRNA EXPRESSION (experimental condition) #6,human macrophages; [2],2.59
"p1E7 (nucleic acid, listed as Homo Sapiens, EST array clone; misc_feature 72, 132, 133, 205: n = A,T,C or G) DNA: GCTTGAGATCTCCAGCCTTACCGCGGCTCGAAATGGCCCCAACTGCTCCTGCACCACTGGTGTCTCCTGCANCTGCACCGGCTCCTGCAAGTGCAAAGAGTGCAAATGACCTCCTGCAAGAAGAGCTGCTGNNCTGCTGCCCCGTGGTGTGCAAGTGTGCCACGGTGTGTCTGCAAAGGGACGTTGGAGAACTGCAGCTGCTGTNCTGATGTGGGAACAAGCTCTTCTCCCAGATGTTAATAGAACAAGCTGCACAACCTGGGATTTTTTTTCAATACGATACTTGAGCCATTTTCTGCATTTCTTTTTATTGTTAAATATGTGAGTGACAATAAAACAATTTTGACTTTGAATCTTAAAAA","mRNA expression level, #1 HY 6 hr",[1],1.29
same,"mRNA expression level, #1 HY 18 hr",[1],1.63
same,"mRNA expression level, #1 NO",[1],1.20
same,"mRNA expression level, #2 HY 6 hr",[1],0.18
same,"mRNA expression level, #2 HY 18 hr",[1],0.22
same,"mRNA expression level, #2 NO",[1],0.12
same,"mRNA expression level, #3 HY 6 hr",[1],1.03
same,"mRNA expression level, #3 HY 18 hr",[1],0.71
same,"mRNA expression level, #3 NO",[1],1.40
same,"mRNA expression level, #4 HY 6 hr",[1],2.17
same,"mRNA expression level, #4 HY 18 hr",[1],2.85
same,"mRNA expression level, #4 NO",[1],2.36
same,"mRNA expression level, #5 HY 6 hr",[1],6.75
same,"mRNA expression level, #5 NO",[1],4.89
same,"mRNA expression level, #6 HY 6 hr",[1],1.07
same,#6 HY 18 hr (mRNA expression level),[1],0.86
same,"mRNA expression level, #6 NO",[1],0.08
same,#7 HY 6 hr (mRNA expression level),[1],2.06
same,#7 HY 18 hr (mRNA expression level),[1],1.32
same,#7 NO (mRNA expression level),[1],0.87
same,#8 HY 6 hr (mRNA expression level),[1],0.75
same,#8 HY 18 hr (mRNA expression level),[1],1.20
same,#8 NO (mRNA expression level),[1],0.03
same,#9 HY 6 hr (mRNA expression level),[1],0.05
same,#9 HY 18 hr (mRNA expression level),[1],0.04
same,#9 NO (mRNA expression level),[1],0.04
same,#10 HY 6 hr (mRNA expression level),[1],2.60
same,#10 HY 18 hr (mRNA expression level),[1],3.60
same,#10 NO (mRNA expression level),[1],3.09
same,#11 HY 6 hr (mRNA expression level),[1],0.70
same,#11 HY 18 hr (mRNA expression level),[1],0.74
same,#11 NO (mRNA expression level),[1],0.60
same,HIGHEST FOLD CHANGE IN HYPOXIA (hr hypoxia + cell type),"[1]; hypoxia/normoxia induction ratio, 18 hr monocyte",37.9 (18 hr monocyte) fold
same,mRNA EXPRESSION (experimental condition) #1,human macrophages; [2],0.49
same,mRNA EXPRESSION (experimental condition) #2,human macrophages; [2],1.26
same,mRNA EXPRESSION (experimental condition) #3,human macrophages; [2],0.70
same,mRNA EXPRESSION (experimental condition) #4,human macrophages; [2],1.11
same,mRNA EXPRESSION (experimental condition) #5,human macrophages; [2],1.32
same,mRNA EXPRESSION (experimental condition) #6,human macrophages; [2],2.89
"p1G20 (nucleic acid, listed as Homo Sapiens) DNA: GAGTAGGAGTGCCTCCTTGTCTGCACTGCTGGTATGGGGTTAGGCCAGGTAGGACATTCCAGAGGGGCTTCTGAAAACCAAGAGTCCCTGGGGAAAGGGAACAGAGTAAGGCAGGCCTTGTTCTCACTGCCCTCTAAGGGAACTTGGTCACTCGGCACTTTTAAGCCTCAGTTTCTCCAGTTCAATAATAAGGACAAGAGCTTTTCCCATGCATTCTCTTTCCCCGGGAAAGTTGACTGAGGTGACCAGTAATAGAATTGAAAAGGGAGAGTGTCTTCAGTGCAATGTGGCATCCTGGATTGGGTCTTGGAACAAAAACAGGACATTAGTGGGAAAATTGGAAATCTGAAAAAAGTCTGAATTTTAGTTAATATACCAATTTCAGTCTCTTGGTTTTGACAGATGTACCATGGTGATGTAAGATGTTGACCTTGGGGTAGGCTGGGTGAAGGGTATACAGGAACTCTTTGTACTATCTCTGCAACTTCTCTGTAAATCTAGTATCATTCCAAAATAAAAGTTTATTTAATTTAAAAAAAAAA",HIGHEST FOLD CHANGE IN HYPOXIA (hr hypoxia + cell type),"[1]; DOWN, 18 hr cardiomyocyte",4.17 DOWN (18 hr cardiomyocyte) ^ fold
same,mRNA expression level,"[1]; cell type #1, HY (hypoxia) 6 hr",0.48
same,mRNA expression level,"[1]; cell type #1, HY (hypoxia) 18 hr",0.50
same,mRNA expression level,"[1]; cell type #1, NO (normoxia)",0.74
same,mRNA expression level,"[1]; cell type #2, HY (hypoxia) 6 hr",0.66
same,mRNA expression level,"[1]; cell type #2, HY (hypoxia) 18 hr",0.36
same,mRNA expression level,"[1]; cell type #2, NO (normoxia)",1.54
same,mRNA expression level,"[1]; cell type #3, HY (hypoxia) 6 hr",1.26
same,mRNA expression level,"[1]; cell type #3, HY (hypoxia) 18 hr",1.03
same,mRNA expression level,"[1]; cell type #3, NO (normoxia)",1.64
same,mRNA expression level,"[1]; cell type #4, HY (hypoxia) 6 hr",0.84
same,mRNA expression level,"[1]; cell type #4, HY (hypoxia) 18 hr",0.84
same,mRNA expression level,"[1]; cell type #4, NO (normoxia)",0.99
same,mRNA expression level,"[1]; cell type #5, HY (hypoxia) 6 hr",1.19
same,mRNA expression level,"[1]; cell type #5, NO (normoxia)",1.34
same,mRNA expression level,"[1]; cell type #6, HY (hypoxia) 6 hr",0.98
same,mRNA expression level,"[1]; cell type #6, NO (normoxia)",1.29
same,mRNA EXPRESSION (experimental condition) #1,human macrophages; [3],1.45
same,mRNA EXPRESSION (experimental condition) #2,human macrophages; [3],0.73
same,mRNA EXPRESSION (experimental condition) #3,human macrophages; [3],1.60
same,mRNA EXPRESSION (experimental condition) #4,human macrophages; [3],1.12
same,mRNA EXPRESSION (experimental condition) #5,human macrophages; [3],0.57
same,mRNA EXPRESSION (experimental condition) #6,human macrophages; [3],0.44

# From US20030203372A1, “Analysis method” (priority 2000, published 2003)
